Assay results reported in patent US20120237528A1 (Janssen / Centocor, published 2012).
Like-named read-outs stand apart in the source and are kept apart here.

T1: Cynomolgous monkey (cyno) TF-ECD with His Tag (cynomolgus monkey, UniProt P13726 33-251 (human entry))
T1 construct: also called cyno antigen
T1 chain: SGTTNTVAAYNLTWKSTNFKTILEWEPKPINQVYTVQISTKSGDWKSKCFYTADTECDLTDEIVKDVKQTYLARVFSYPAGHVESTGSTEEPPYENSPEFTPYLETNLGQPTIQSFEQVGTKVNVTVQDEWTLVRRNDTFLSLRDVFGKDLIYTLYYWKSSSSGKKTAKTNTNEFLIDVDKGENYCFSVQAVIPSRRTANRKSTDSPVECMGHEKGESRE


Columns and labels:
[1] = molecular target: Innovin, lyophilized recombinant human tissue factor combined with phospholipids (human, UniProt P13726 33-295, limits assumed); experiment: cell-based or functional assay
[2] = molecular target: T2, endogenous human tissue factor on MDA-MB-231 breast cancer cells (human, UniProt P13726 33-295); experiment: cell-based or functional assay
[3] = molecular target: T2, endogenous human tissue factor on …; experiment: cell-based or functional assay; remark: listed apart in the source
[4] = molecular target: T2, endogenous human tissue factor on …; experiment: FACS on MDA-MB-231 cells
Description: This assay is used to detect the direct binding of antibody to endogenouse human TF expressed in breast cancer cells. Prepare four point titrations of the test mAbs in FACS buffer (1% FBS in PBS) in duplicate. Start a titration at 1,000 ng/ml with 1:4 dilutions. […] Unstained cells and secondary antibody, Cy-5 conjugated Goat anti-Human IgG Fc antibody in FACS buffer 1:200, is used as controls and prepared immediately before use.
Using standard tissue culture technique, rinse adherent MDA-MB-231 cells in culture flask with once with PBS (w/o Ca+2/Mg+2). Lift cells with Versene and count the cells and seed 200,000 cells per well in a polystyrene V-bottom plate. FACS Analysis Protocol: Tissue Factor Binding. Pellet the cells in a Allegra X-15R centrifuge at 450×g for 3 minutes at 4° C., resuspend in FACS Buffer (2% FBS in PBS) and plate 200,000 cells per well in 200 uL. Pellet cells at 450×g for 3 minutes at 4° C. Discard supernatants and add 100 uL/well test or control mAbs to designated wells and incubate on ice or at 4° C. for 1 hour (+/−10 minutes). Pellet cells at 450×g for 3 minutes at 4° C. Discard supernatants and wash cells once in FACS buffer. Resuspend cells in 200 uL/well FACS buffer and pellet cells at 450×g for 3 minutes at 4° C. Discard supernatants and add 100 uL/well secondary antibody to designated wells (triterate), and incubate on ice for 1 hour (+/−10 minutes). Pellet cells at 450×g for 3 minutes at 4° C. Discard supernatants and wash cells 2 times in FACS buffer before resuspending the cells in 200 uL/well FACS Buffer (triterate). Pellet cells at 450×g for 3 minutes at 4° C. Discard supernatant and resuspend cells in 100 uL/well CytoFix Buffer. Analyze reactions by flow cytometry (BD FACSArray). The FlowJo Software is used for FACS data analysis by gating the main population of cells in the unstained control well and applying the gate to the whole data set. The data is exported as a table of the geometric mean fluorescence intensity (MFI) in the red channel for the applied gate.

[5] = molecular target: T1, Cynomolgous monkey (cyno) TF-ECD with …; experiment: Biacore
[6] = molecular target: T3, recombinant extracellular domain (ECD) of human TF, amino acid 1-219 of the mature chain, C-terminal His6-tag (human, UniProt P13726 33-251); experiment: Biacore
T3 construct: expressed in a mammalian system; used for ELISA and Biacore; biotinylated by NHS-ester for the Fab ELISA; also called His6-TF-ECD1-219; HumanTF1-219

[7] = molecular target: T3, recombinant extracellular domain (ECD) …; experiment: Biacore; remark: listed apart in the source
[8] = molecular target: T1, Cynomolgous monkey (cyno) TF-ECD with …; experiment: TF-ECD binding ELISA, chemiluminescent
[9] = molecular target: T3, recombinant extracellular domain (ECD) …; experiment: TF-ECD binding ELISA, chemiluminescent
[10] = molecular target: T2, endogenous human tissue factor on …; experiment: cell-based or functional assay; remark: listed apart in the source

| Binder | T½ Max (seconds), coagulation of human plasma [1] [s] | % IL-8 Inhibition [2] [%] | IL-8 Induction, Ave % inhibition [3] [%] | Whole Cell Binding, Ave % [4] [%] | Kd [5] [nM] | Kd [6] [nM] | Kd [7] [nM] | koff [7] [s⁻¹] | kon [7] [M⁻¹ s⁻¹] | EC50 [8] [mg/L] | EC50 [9] [mg/L] | IC50 (ug/ml), IL-8 induction assay [10] [µg/mL] |
| --- | --- | --- | --- | --- | --- | --- | --- | --- | --- | --- | --- | --- |
| M16 (antibody, V domains shown, complete MAb; FR4 is its own entry; also called H16/L2) VH: QVQLVQSGAEVKKPGASVKVSCKASGYTFITYWIEWVRQAPGQGLEWMGDILPGSGSTNYNENFKGRVTMTRDTSTSTVYMELSSLRSEDTAVYYCARSGYYGNSGFAYWGQGTLVTVSS VL: DIVMTQSPDSLAVSLGERATINCKSSQSLLSSGNQKNYLTWYQQKPGQPPKLLIYWASTRESGVPDRFSGSGSGTDFTLTISSLQAEDVAVYYCQNDYTYPLTFGQGTKLEIK | 198 | 98.3 | 109 | 109 | 1.96 | 0.66 | 0.66 | 6.7e-05 | 102000 | 0.0234 | 0.00931 | – |
| M11 (antibody, V domains shown, complete MAb; FR4 is its own entry; also called H15/L4) VH: EVQLVQSGAEVKKPGESLRISCKGSGYTFITYWIEWVRQMPGKGLEWMGDILPGSGSTNYNENFKGHVTISADKSISTAYLQWSSLKASDTAMYYCARSGYYGNSGFAYWGQGTLVTVSS VL: DIVMTQSPLSLPVTPGEPASISCKSSQSLLSSGNQKNYLTWYLQKPGQSPQLLIYWASTRESGVPDRFSGSGSGTDFTLKISRVEAEDVGVYYCQNDYTYPLTFGQGTKLEIK | 195 | 87.9 | 93 | 114 | 1.52 | 0.37 | 0.36 | – | – | 0.0187 | 0.00994 | – |
| M9 (antibody, V domains shown, complete MAb; FR4 is its own entry; also called H15/L2) VH: EVQLVQSGAEVKKPGESLRISCKGSGYTFITYWIEWVRQMPGKGLEWMGDILPGSGSTNYNENFKGHVTISADKSISTAYLQWSSLKASDTAMYYCARSGYYGNSGFAYWGQGTLVTVSS VL: DIVMTQSPDSLAVSLGERATINCKSSQSLLSSGNQKNYLTWYQQKPGQPPKLLIYWASTRESGVPDRFSGSGSGTDFTLTISSLQAEDVAVYYCQNDYTYPLTFGQGTKLEIK | 198 | 103 | 106 | 107 | 1.55 | 0.61 | 0.61 | 5.9e-05 | 97300 | 0.0199 | 0.0098 | – |
| M12 (antibody, V domains shown, complete MAb; FR4 is its own entry; also called H15/L5) VH: EVQLVQSGAEVKKPGESLRISCKGSGYTFITYWIEWVRQMPGKGLEWMGDILPGSGSTNYNENFKGHVTISADKSISTAYLQWSSLKASDTAMYYCARSGYYGNSGFAYWGQGTLVTVSS VL: DIVMTQTPLSLSVTPGQPASISCKSSQSLLSSGNQKNYLTWYLQKPGQPPQLLIYWASTRESGVPDRFSGSGSGTDFTLKISRVEAEDVGVYYCQNDYTYPLTFGQGTKLEIK | 197 | 98.6 | 102 | 124 | 2.24 | 0.55 | 0.55 | 5.1e-05 | 92200 | 0.0228 | 0.01 | – |
| M1611 (antibody, V domains shown, complete MAb; FR4 is its own entry; also called H128/L3) VH: EVQLVQSGAEVKKPGESLRISCKGSGYTFGPYWIEWVRQMPGKGLEWMGDILPGSGYTTYSPSFQGHVTISADKSISTAYLQWSSLKASDTAMYYCARSGYYGNSGFAYWGQGTLVTVSS VL: DIVMTQTPLSLPVTPGEPASISCKSSQSLLSSGNQKNYLTWYLQKPGQSPQLLIYWASTRESGVPDRFSGSGSGTDFTLKISRVEAEDVGVYYCQNDYTYPLTFGQGTKLEIK | 154 | – | – | – | – | – | 0.31 | 5.9e-05 | 192000 | – | – | 0.398 |
| M1612 (antibody, V domains shown, complete MAb; FR4 is its own entry; also called H133/L3; TF7M1612) VH: EVQLVQSGAEVKKPGESLRISCKGSGYTFNPYWIEWVRQMPGKGLEWMGDILPGTGYTNYSPSFQGHVTISADKSISTAYLQWSSLKASDTAMYYCARSGYYGNSGFAYWGQGTLVTVSS VL: DIVMTQTPLSLPVTPGEPASISCKSSQSLLSSGNQKNYLTWYLQKPGQSPQLLIYWASTRESGVPDRFSGSGSGTDFTLKISRVEAEDVGVYYCQNDYTYPLTFGQGTKLEIK | 163 | – | – | – | – | – | 0.38 | 6.3e-05 | 165000 | – | – | 0.413 |
| M19 (antibody, V domains shown, complete MAb; FR4 is its own entry; also called H16/L5) VH: QVQLVQSGAEVKKPGASVKVSCKASGYTFITYWIEWVRQAPGQGLEWMGDILPGSGSTNYNENFKGRVTMTRDTSTSTVYMELSSLRSEDTAVYYCARSGYYGNSGFAYWGQGTLVTVSS VL: DIVMTQTPLSLSVTPGQPASISCKSSQSLLSSGNQKNYLTWYLQKPGQPPQLLIYWASTRESGVPDRFSGSGSGTDFTLKISRVEAEDVGVYYCQNDYTYPLTFGQGTKLEIK | 199 | 87.3 | 106 | 111 | 2.81 | 0.41 | 0.41 | 4.1e-05 | 98800 | 0.0296 | 0.00922 | – |
| M58 (antibody, V domains shown, complete MAb; FR4 is its own entry; also called H22/L2) VH: EVQLVQSGAEVKKPGESLRISCKGSGYTFITYWIEWVRQMPGKGLEWMGDILPGSGSTNYSPSFQGHVTISADKSISTAYLQWSSLKASDTAMYYCARSGYYGNSGFAYWGQGTLVTVSS VL: DIVMTQSPDSLAVSLGERATINCKSSQSLLSSGNQKNYLTWYQQKPGQPPKLLIYWASTRESGVPDRFSGSGSGTDFTLTISSLQAEDVAVYYCQNDYTYPLTFGQGTKLEIK | 192 | 88.5 | 106 | 94 | 1.18 | 0.2 | 0.19 | 1.8e-05 | 94800 | 0.0198 | 0.00903 | – |
| M1584 (antibody, V domains shown, complete MAb; FR4 is its own entry; also called H173/L3) VH: EVQLVQSGAEVKKPGESLRISCKGSGYTFVTYWIEWVRQMPGKGLEWMGDILPGTGYTVYSPSFQGHVTISADKSISTAYLQWSSLKASDTAMYYCARSGYYGNSGFAYWGQGTLVTVSS VL: DIVMTQTPLSLPVTPGEPASISCKSSQSLLSSGNQKNYLTWYLQKPGQSPQLLIYWASTRESGVPDRFSGSGSGTDFTLKISRVEAEDVGVYYCQNDYTYPLTFGQGTKLEIK | 199 | – | – | – | – | – | 0.3 | 5.6e-05 | 184000 | – | – | 0.332 |
| M1607 (antibody, V domains shown, complete MAb; FR4 is its own entry; also called H189/L3; TF7M1607) VH: EVQLVQSGAEVKKPGESLRISCKGSGFTFITYWIAWVRQMPGKGLEWMGDILPASSSTNYSPSFQGHVTISADKSISTAYLQWSSLKASDTAMYYCARSGYYGNSGFAYWGQGTLVTVSS VL: DIVMTQTPLSLPVTPGEPASISCKSSQSLLSSGNQKNYLTWYLQKPGQSPQLLIYWASTRESGVPDRFSGSGSGTDFTLKISRVEAEDVGVYYCQNDYTYPLTFGQGTKLEIK | 152 | – | – | – | – | – | 0.35 | 6e-05 | 170000 | – | – | 0.395 |
